Tested on: peptide library, one residue held at a place counted from the S/T acceptor
Assay: relative phosphorylation of the sub-library (ratio to the mean residue at this position); higher = residue favoured
Settings: human
Method in brief: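 Purified recombinant kinases were reacted in 384-well plates with biotinylated degenerate peptide sub-libraries, each having one residue fixed at one position around a central Ser/Thr. The reaction mix contained 50 μM peptide plus 50 μM ATP spiked with γ-32P-ATP and ran for 90 min under kinase-specific conditions. Relative sub-library phosphorylation, taken from densitometry of phosphorimaged streptavidin membrane spots, is a ratio to the mean residue at that position.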

Chain of NUAK2, construct: Full length (Q9H093 whole entry, looked up): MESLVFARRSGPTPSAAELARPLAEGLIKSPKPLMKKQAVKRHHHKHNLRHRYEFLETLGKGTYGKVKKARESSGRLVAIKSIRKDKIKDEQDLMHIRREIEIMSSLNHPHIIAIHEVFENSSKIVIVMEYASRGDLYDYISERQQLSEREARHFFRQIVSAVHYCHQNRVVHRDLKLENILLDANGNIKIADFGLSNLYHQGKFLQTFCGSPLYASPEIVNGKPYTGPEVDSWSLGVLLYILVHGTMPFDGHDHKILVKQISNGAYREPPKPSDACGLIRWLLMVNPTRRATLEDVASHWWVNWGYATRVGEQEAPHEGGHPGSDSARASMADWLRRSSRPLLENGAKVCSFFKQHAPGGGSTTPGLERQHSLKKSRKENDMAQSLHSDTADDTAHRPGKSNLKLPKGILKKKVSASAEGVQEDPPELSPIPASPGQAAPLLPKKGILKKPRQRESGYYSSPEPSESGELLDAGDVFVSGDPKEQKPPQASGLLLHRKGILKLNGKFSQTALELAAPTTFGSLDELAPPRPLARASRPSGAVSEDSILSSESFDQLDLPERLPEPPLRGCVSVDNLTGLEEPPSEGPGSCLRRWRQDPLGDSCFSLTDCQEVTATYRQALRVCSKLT
Chain of LRRK2, construct: aa960-end (Q5S007 960-2527, looked up): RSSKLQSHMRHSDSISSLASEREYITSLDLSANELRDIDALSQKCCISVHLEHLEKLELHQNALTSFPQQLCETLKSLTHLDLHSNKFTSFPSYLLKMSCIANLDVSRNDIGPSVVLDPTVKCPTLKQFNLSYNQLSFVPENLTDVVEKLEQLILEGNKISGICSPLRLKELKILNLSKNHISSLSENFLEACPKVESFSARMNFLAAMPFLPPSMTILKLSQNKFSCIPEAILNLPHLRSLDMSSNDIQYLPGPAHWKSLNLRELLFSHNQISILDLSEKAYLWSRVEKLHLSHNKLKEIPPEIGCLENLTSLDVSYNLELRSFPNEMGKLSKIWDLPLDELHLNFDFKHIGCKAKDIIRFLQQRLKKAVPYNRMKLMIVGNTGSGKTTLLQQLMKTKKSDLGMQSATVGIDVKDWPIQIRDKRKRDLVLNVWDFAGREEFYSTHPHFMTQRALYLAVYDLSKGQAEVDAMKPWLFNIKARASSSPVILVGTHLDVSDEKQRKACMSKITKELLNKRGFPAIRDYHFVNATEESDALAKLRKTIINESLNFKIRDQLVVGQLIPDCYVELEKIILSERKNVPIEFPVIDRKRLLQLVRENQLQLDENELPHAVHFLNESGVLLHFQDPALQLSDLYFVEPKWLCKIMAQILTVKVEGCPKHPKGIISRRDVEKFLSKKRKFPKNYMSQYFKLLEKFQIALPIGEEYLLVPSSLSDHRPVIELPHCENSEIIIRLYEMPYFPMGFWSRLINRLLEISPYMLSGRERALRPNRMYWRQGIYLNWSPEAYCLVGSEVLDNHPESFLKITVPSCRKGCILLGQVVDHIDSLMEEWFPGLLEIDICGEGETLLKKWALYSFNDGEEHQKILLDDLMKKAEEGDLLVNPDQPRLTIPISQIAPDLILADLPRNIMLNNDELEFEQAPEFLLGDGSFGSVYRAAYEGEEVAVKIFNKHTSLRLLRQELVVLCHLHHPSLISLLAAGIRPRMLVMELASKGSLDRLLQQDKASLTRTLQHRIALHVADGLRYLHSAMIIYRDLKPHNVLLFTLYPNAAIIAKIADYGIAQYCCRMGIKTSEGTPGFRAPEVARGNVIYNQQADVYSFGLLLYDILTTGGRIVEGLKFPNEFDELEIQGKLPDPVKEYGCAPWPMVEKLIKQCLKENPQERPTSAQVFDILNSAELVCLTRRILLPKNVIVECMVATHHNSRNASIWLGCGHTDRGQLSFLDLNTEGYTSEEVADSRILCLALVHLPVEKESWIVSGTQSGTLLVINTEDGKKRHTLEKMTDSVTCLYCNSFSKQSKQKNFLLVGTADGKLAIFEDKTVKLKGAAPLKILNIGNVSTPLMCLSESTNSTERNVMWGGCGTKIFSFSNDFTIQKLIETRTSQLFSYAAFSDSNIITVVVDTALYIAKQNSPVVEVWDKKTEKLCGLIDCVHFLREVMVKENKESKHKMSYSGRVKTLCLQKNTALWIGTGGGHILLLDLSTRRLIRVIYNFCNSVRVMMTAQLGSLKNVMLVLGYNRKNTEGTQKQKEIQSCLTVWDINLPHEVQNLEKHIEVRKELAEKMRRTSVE
Chain of CLK2, construct: aa137-498 (P49760 137-498, looked up): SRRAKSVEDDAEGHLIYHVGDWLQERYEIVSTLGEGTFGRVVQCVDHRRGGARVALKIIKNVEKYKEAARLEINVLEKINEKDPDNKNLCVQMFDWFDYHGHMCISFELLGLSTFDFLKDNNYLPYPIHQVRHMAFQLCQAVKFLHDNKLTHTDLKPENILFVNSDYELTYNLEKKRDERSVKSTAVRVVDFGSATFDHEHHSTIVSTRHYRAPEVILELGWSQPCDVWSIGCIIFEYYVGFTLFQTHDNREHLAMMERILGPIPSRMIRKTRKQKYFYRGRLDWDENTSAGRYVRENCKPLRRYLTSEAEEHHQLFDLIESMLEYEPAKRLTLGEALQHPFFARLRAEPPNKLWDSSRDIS

CLK2, construct: aa137-498 (from UniProt P49760)
relative phosphorylation
Settings | at +1 | at +2 | at +3 | at +4 | at -1 | at -2 | at -3 | at -4 | at -5
A fixed | 0.537 | 1.38 | 0.558 | 0.879 | 1.16 | 1.94 | 0.571 | 1.2 | 1.14
D fixed | 0.278 | 1.66 | 0.658 | 2.06 | 0.653 | 0.869 | 0.537 | 0.818 | 0.937
E fixed | 1.31 | 2.38 | 0.614 | 2.16 | 0.846 | 1.79 | 0.471 | 0.964 | 0.865
F fixed | 0.258 | 0.524 | 0.357 | 0.734 | 0.316 | 0.239 | 0.223 | 0.547 | 0.929
G fixed | 0.82 | 1.31 | 0.908 | 0.989 | 1.78 | 1.51 | 0.615 | 1.42 | 1.23
H fixed | 0.56 | 0.949 | 0.851 | 0.93 | 0.812 | 0.538 | 0.627 | 0.906 | 1.05
I fixed | 0.388 | 0.352 | 0.246 | 0.491 | 0.194 | 0.159 | 0.176 | 0.441 | 0.412
K fixed | 0.663 | 0.989 | 2.22 | 1.03 | 2.09 | 1.06 | 2.11 | 1.82 | 2.18
L fixed | 0.433 | 0.565 | 0.396 | 0.645 | 0.416 | 0.266 | 0.209 | 0.485 | 0.478
M fixed | 0.872 | 0.633 | 0.332 | 0.764 | 0.614 | 0.328 | 0.277 | 0.707 | 0.54
N fixed | 0.464 | 0.968 | 0.95 | 1.18 | 1.07 | 0.522 | 0.473 | 0.897 | 1.05
P fixed | 7.13 | 1.76 | 2.02 | 0.754 | 2.01 | 0.616 | 0.523 | 1.29 | 0.976
Q fixed | 1.05 | 1.02 | 0.772 | 1.28 | 1.28 | 0.824 | 0.64 | 1.07 | 0.879
R fixed | 0.767 | 1.08 | 5.17 | 1.12 | 2.29 | 5.66 | 8.88 | 2.84 | 2.51
V fixed | 0.804 | 0.483 | 0.322 | 0.695 | 0.465 | 0.2 | 0.222 | 0.521 | 0.604
W fixed | 0.296 | 0.468 | 0.305 | 0.626 | 0.467 | 0.219 | 0.219 | 0.491 | 0.607
Y fixed | 0.367 | 0.468 | 0.314 | 0.668 | 0.543 | 0.266 | 0.23 | 0.582 | 0.614
pThr fixed | 1.28 | 5.19 | 0.962 | 4.17 | 0.539 | 0.556 | 0.521 | 0.958 | 1
pTyr fixed | 1.47 | 1.44 | 1.32 | 1.97 | 2.09 | 0.473 | 0.485 | 1.08 | 1.12

SRPK2, construct: Full length (from UniProt P78362)
relative phosphorylation
Settings | at +1 | at +2 | at +3 | at +4 | at -1 | at -2 | at -3 | at -4 | at -5
A fixed | 0.712 | 1.14 | 0.669 | 0.878 | 0.911 | 1.6 | 0.473 | 0.89 | 1.01
D fixed | 0.338 | 1.38 | 0.556 | 0.992 | 0.577 | 2.3 | 0.364 | 0.723 | 0.669
E fixed | 0.495 | 1.2 | 0.406 | 0.747 | 0.626 | 1.46 | 0.305 | 0.685 | 0.713
F fixed | 0.35 | 1.12 | 0.427 | 0.715 | 0.468 | 0.64 | 0.265 | 0.697 | 0.971
G fixed | 0.597 | 0.77 | 0.921 | 1.16 | 0.901 | 1.11 | 0.363 | 0.818 | 1.12
H fixed | 0.663 | 1.01 | 0.699 | 1.11 | 1.6 | 1.56 | 0.44 | 1.11 | 1.15
I fixed | 0.667 | 0.647 | 0.369 | 0.783 | 0.361 | 0.298 | 0.222 | 0.549 | 0.593
K fixed | 1.6 | 2.02 | 1.29 | 1.51 | 2.2 | 0.995 | 0.918 | 1.71 | 1.75
L fixed | 0.852 | 0.772 | 0.407 | 0.875 | 0.671 | 0.361 | 0.232 | 0.644 | 0.648
M fixed | 0.839 | 0.547 | 0.383 | 0.794 | 0.693 | 0.538 | 0.288 | 0.719 | 0.754
N fixed | 1.11 | 0.934 | 0.666 | 1.02 | 1.09 | 1.22 | 0.354 | 0.988 | 0.999
P fixed | 4.58 | 1.22 | 1.72 | 1.06 | 1.44 | 0.822 | 0.347 | 1.84 | 0.758
Q fixed | 1.08 | 0.939 | 0.687 | 1.07 | 1.66 | 0.714 | 0.528 | 0.956 | 0.834
R fixed | 1.23 | 1.13 | 6.39 | 1.59 | 1.92 | 1.63 | 11 | 2.28 | 2.36
V fixed | 1.07 | 0.976 | 0.442 | 0.815 | 0.726 | 0.449 | 0.246 | 0.696 | 0.769
W fixed | 0.407 | 0.581 | 0.502 | 1.03 | 0.522 | 0.614 | 0.351 | 0.898 | 1.07
Y fixed | 0.412 | 0.618 | 0.474 | 0.863 | 0.629 | 0.695 | 0.319 | 0.794 | 0.829
pThr fixed | 0.513 | 0.839 | 0.67 | 0.956 | 0.411 | 0.555 | 0.363 | 0.65 | 0.55
pTyr fixed | 0.696 | 0.733 | 0.646 | 0.951 | 0.763 | 1.09 | 0.45 | 1.25 | 0.809

NUAK2, construct: Full length (from UniProt Q9H093)
relative phosphorylation
Settings | at +1 | at +2 | at +3 | at +4 | at -1 | at -2 | at -3 | at -4 | at -5
A fixed | 0.911 | 0.916 | 0.886 | 0.691 | 1.22 | 1.89 | 0.724 | 1.15 | 0.804
D fixed | 0.559 | 0.547 | 1.29 | 0.509 | 0.855 | 0.865 | 0.378 | 0.554 | 0.385
E fixed | 0.598 | 0.535 | 0.635 | 0.498 | 0.549 | 0.503 | 0.514 | 0.867 | 0.435
F fixed | 1.71 | 0.654 | 1.16 | 0.862 | 0.705 | 0.722 | 0.461 | 0.764 | 1.07
G fixed | 1.18 | 1.14 | 0.712 | 0.702 | 1.42 | 0.979 | 0.725 | 0.862 | 0.603
H fixed | 0.898 | 1.35 | 1.61 | 0.907 | 0.911 | 0.659 | 1.01 | 0.912 | 0.605
I fixed | 0.691 | 0.99 | 0.713 | 2.05 | 0.45 | 0.761 | 0.452 | 1 | 2.27
K fixed | 1.08 | 1.66 | 1.26 | 1.32 | 1.44 | 0.975 | 2.61 | 1.59 | 1.3
L fixed | 0.739 | 0.839 | 0.705 | 1.87 | 0.84 | 0.528 | 0.541 | 0.858 | 1.73
M fixed | 1.24 | 0.909 | 0.828 | 1.55 | 1.07 | 0.83 | 0.73 | 1.37 | 1.02
N fixed | 1 | 1.07 | 1.44 | 0.74 | 1.26 | 2.66 | 0.566 | 0.628 | 0.435
P fixed | 0.896 | 0.727 | 0.529 | 0.679 | 1.42 | 0.602 | 0.88 | 0.86 | 0.735
Q fixed | 1.16 | 0.745 | 0.766 | 0.624 | 1.09 | 1.23 | 0.739 | 0.954 | 0.613
R fixed | 1.51 | 2.48 | 1.69 | 1.1 | 1.65 | 1.23 | 5.28 | 1.8 | 1.66
V fixed | 0.763 | 0.927 | 0.614 | 1.07 | 0.581 | 1.26 | 0.443 | 1.13 | 1.74
W fixed | 0.868 | 0.717 | 1.07 | 0.931 | 0.557 | 0.598 | 0.471 | 0.837 | 0.687
Y fixed | 1.19 | 0.785 | 1.09 | 0.896 | 0.962 | 0.709 | 0.474 | 0.856 | 0.894
pThr fixed | 1.13 | 1.29 | 0.495 | 0.708 | 0.389 | 0.808 | 0.725 | 0.919 | 0.653
pTyr fixed | 0.814 | 0.59 | 0.71 | 0.605 | 1.03 | 0.477 | 0.531 | 0.602 | 0.76

LRRK2, construct: aa960-end (from UniProt Q5S007)
relative phosphorylation
Settings | at +1 | at +2 | at +3 | at +4 | at -1 | at -2 | at -3 | at -4 | at -5
A fixed | 0.869 | 0.867 | 0.909 | 0.908 | 0.82 | 1.05 | 0.893 | 0.985 | 1.01
D fixed | 0.525 | 0.559 | 0.696 | 0.691 | 0.639 | 0.516 | 0.675 | 0.685 | 0.698
E fixed | 0.546 | 0.451 | 0.595 | 0.673 | 0.517 | 0.477 | 0.662 | 0.719 | 0.741
F fixed | 0.874 | 1.17 | 0.884 | 1 | 0.94 | 1.95 | 1.05 | 1.23 | 1.09
G fixed | 0.82 | 0.826 | 0.894 | 0.966 | 1.17 | 1.18 | 1.06 | 1.06 | 0.993
H fixed | 0.814 | 1.02 | 1.16 | 1.18 | 1.15 | 1.18 | 1.08 | 0.949 | 1.04
I fixed | 0.996 | 0.834 | 0.649 | 0.934 | 0.482 | 0.684 | 0.74 | 0.758 | 0.906
K fixed | 1.91 | 1.44 | 1.82 | 1.39 | 1.76 | 0.755 | 1.43 | 1.12 | 1.08
L fixed | 1.15 | 0.786 | 0.755 | 0.865 | 0.812 | 0.943 | 0.85 | 0.842 | 0.858
M fixed | 1.08 | 0.952 | 0.776 | 0.949 | 0.969 | 1.35 | 0.974 | 0.957 | 1.05
N fixed | 0.977 | 0.943 | 1.12 | 1.12 | 1.03 | 0.799 | 0.881 | 0.805 | 0.83
P fixed | 0.941 | 0.724 | 0.822 | 0.794 | 0.88 | 0.943 | 1.01 | 1.1 | 0.989
Q fixed | 1.07 | 0.709 | 0.946 | 1.02 | 0.765 | 0.73 | 0.83 | 0.821 | 0.813
R fixed | 1.88 | 2.91 | 2.3 | 1.45 | 1.97 | 0.994 | 2.07 | 1.4 | 1.37
V fixed | 0.777 | 0.83 | 0.741 | 0.79 | 0.553 | 0.658 | 0.723 | 0.846 | 0.971
W fixed | 0.857 | 0.908 | 1.05 | 1.09 | 0.879 | 1.28 | 0.996 | 1.65 | 1.47
Y fixed | 0.916 | 1.07 | 0.885 | 1.17 | 1.65 | 1.51 | 1.07 | 1.08 | 1.1
pThr fixed | 0.67 | 0.672 | 0.925 | 0.822 | 0.54 | 0.782 | 0.822 | 0.859 | 0.932
pTyr fixed | 0.759 | 0.688 | 0.9 | 0.868 | 0.709 | 0.754 | 0.909 | 0.892 | 1.18

— the supplement of paper PMC9876800
